Test results published in article PMC6974733, “Rap1‐mediated nucleosome displacement can regulate gene expression in senescent cells without impacting the pace of senescence”.
Residue numbers refer to the chain shown, from its start. Numbers in names are those of the source. Blank lines part the entries; values can stand above or below the binder they belong to.

Columns and labels:
[1] = target: T1, Rap1SHY (Saccharomyces cerevisiae? (budding …, UniProt P11938 1-827, S392A;H393A;Y394A)); experiment: EMSA; 5-500 nM protein; affinity similar to Rap1; 20 mM Hepes-KOH pH 8, 100 mM KCl, 10 ug/ml BSA, 1 mM EDTA, 2 mM MgCl2, 5% glycerol, 30 min at room temperature; 0.5 nM 32P duplex; 6% gel run at 4 C; concentrations of active protein (~85% active); conditions: protein: recombinant; tags: N-terminal GST, C-terminal 6xHis (pGST-RAP1 SHY-6xHis); label: 32P 5' end label on one strand (PNK); blunt
T1 sequence: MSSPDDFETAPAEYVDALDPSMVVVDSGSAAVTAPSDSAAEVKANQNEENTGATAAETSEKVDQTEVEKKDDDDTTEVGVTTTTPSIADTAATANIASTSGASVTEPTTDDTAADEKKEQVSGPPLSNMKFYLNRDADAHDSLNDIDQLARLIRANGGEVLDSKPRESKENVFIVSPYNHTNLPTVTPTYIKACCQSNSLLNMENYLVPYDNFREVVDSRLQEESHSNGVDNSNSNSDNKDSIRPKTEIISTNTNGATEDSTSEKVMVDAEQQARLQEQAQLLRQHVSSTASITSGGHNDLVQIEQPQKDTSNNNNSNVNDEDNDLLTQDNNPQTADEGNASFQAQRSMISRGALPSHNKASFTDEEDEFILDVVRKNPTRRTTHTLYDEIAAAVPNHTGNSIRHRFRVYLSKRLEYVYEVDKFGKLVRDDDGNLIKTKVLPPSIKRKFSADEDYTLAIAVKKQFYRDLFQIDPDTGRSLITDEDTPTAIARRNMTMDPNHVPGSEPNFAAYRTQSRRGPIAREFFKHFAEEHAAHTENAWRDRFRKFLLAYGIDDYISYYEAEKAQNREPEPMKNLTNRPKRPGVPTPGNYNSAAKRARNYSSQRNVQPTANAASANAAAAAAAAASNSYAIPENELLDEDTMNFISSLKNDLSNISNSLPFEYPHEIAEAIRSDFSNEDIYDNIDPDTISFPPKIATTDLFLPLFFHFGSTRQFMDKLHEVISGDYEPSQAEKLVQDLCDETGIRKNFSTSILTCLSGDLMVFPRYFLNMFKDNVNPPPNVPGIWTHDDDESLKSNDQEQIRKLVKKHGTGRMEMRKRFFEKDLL

[2] = target: T2, Rap1 (Saccharomyces cerevisiae? (budding …, UniProt P11938 1-827)); experiment: EMSA; 5-500 nM protein; affinity similar to Rap1SHY; 20 mM Hepes-KOH pH 8, 100 mM KCl, 10 ug/ml BSA, 1 mM EDTA, 2 mM MgCl2, 5% glycerol, 30 min at room temperature; 0.5 nM 32P duplex; 6% gel run at 4 C; concentrations of active protein (~85% active); conditions: protein: recombinant; tags: N-terminal GST, C-terminal 6xHis (Ni-NTA and GST resin purified); label: 32P 5' end label on one strand (PNK); blunt
T2 sequence: T1 sequence with A392S, A393H, A394Y

[3] = target: histone H3/H4 tetramers, P61830;P02309; experiment: GST pull-down, H3 immunoblot quantitation; conditions: chain shown with the change, read off a plot; for response: 2 μM Rap1 truncated constructs, 2 μM H3/H4, 400 mM NaCl, N = 3, scale: relative H3 signal; for ratio to parent: 0.5 μM GST-SANT, 0.5 μM histones, 400 mM NaCl, N = 2, parent: est. 1.0
[4] = target: T1, Rap1SHY; experiment: EMSA; 5-50 nM protein; affinity similar to Rap1; 20 mM Hepes-KOH pH 8, 100 mM KCl, 10 ug/ml BSA, 1 mM EDTA, 2 mM MgCl2, 5% glycerol, 30 min at room temperature; 0.5 nM 32P duplex; 6% gel run at 4 C; concentrations of active protein (~85% active); conditions: protein: recombinant; tags: N-terminal GST, C-terminal 6xHis (pGST-RAP1 SHY-6xHis); label: 32P 5' end label on one strand (PNK); blunt
[5] = target: T2, Rap1; experiment: EMSA; 5-50 nM protein; affinity similar to Rap1SHY; 20 mM Hepes-KOH pH 8, 100 mM KCl, 10 ug/ml BSA, 1 mM EDTA, 2 mM MgCl2, 5% glycerol, 30 min at room temperature; 0.5 nM 32P duplex; 6% gel run at 4 C; concentrations of active protein (~85% active); conditions: protein: recombinant; tags: N-terminal GST, C-terminal 6xHis (Ni-NTA and GST resin purified); label: 32P 5' end label on one strand (PNK); blunt
[6] = target: T1, Rap1SHY; experiment: EMSA; 0.5-100 nM protein; higher affinity than Rap1; 20 mM Hepes-KOH pH 8, 100 mM KCl, 10 ug/ml BSA, 1 mM EDTA, 2 mM MgCl2, 5% glycerol, 30 min at room temperature; 0.5 nM 32P duplex; 6% gel run at 4 C; concentrations of active protein (~85% active); conditions: protein: recombinant; tags: N-terminal GST, C-terminal 6xHis (pGST-RAP1 SHY-6xHis); label: 32P 5' end label on one strand (PNK); blunt
[7] = target: T2, Rap1; experiment: EMSA; 0.5-100 nM protein; lower affinity than Rap1SHY; 20 mM Hepes-KOH pH 8, 100 mM KCl, 10 ug/ml BSA, 1 mM EDTA, 2 mM MgCl2, 5% glycerol, 30 min at room temperature; 0.5 nM 32P duplex; 6% gel run at 4 C; concentrations of active protein (~85% active); conditions: protein: recombinant; tags: N-terminal GST, C-terminal 6xHis (Ni-NTA and GST resin purified); label: 32P 5' end label on one strand (PNK); blunt

B1: GAC1 NRTS promoter (dsDNA)
DNA 1: AATAATACATCACATTAACTGTCTATAAGAGGCTGGTAC
DNA 2: GTACCAGCCTCTTATAGACAGTTAATGTGATGTATTATT
dissociation constant (Kd) [1]: ~10 fold vs TEF2 (printed: Kd approximately 10-fold lower than in B; titration range suggests affinity is meant)
dissociation constant (Kd) [2]: ~10 fold vs TEF2 (printed: Kd approximately 10-fold lower than in B; titration range suggests affinity is meant)

B3: TEF2 promoter Rap1 site (dsDNA)
DNA 1: TGTTGCACCCACACATTTA
DNA 2: TAAATGTGTGGGTGCAACA
binding result [4]: binds
binding result [5]: binds

B4: GST-Rap1^CΔ, P11938 S392A; H393A; Y394A (protein)
chain: MSSPDDFETAPAEYVDALDPSMVVVDSGSAAVTAPSDSAAEVKANQNEENTGATAAETSEKVDQTEVEKKDDDDTTEVGVTTTTPSIADTAATANIASTSGASVTEPTTDDTAADEKKEQVSGPPLSNMKFYLNRDADAHDSLNDIDQLARLIRANGGEVLDSKPRESKENVFIVSPYNHTNLPTVTPTYIKACCQSNSLLNMENYLVPYDNFREVVDSRLQEESHSNGVDNSNSNSDNKDSIRPKTEIISTNTNGATEDSTSEKVMVDAEQQARLQEQAQLLRQHVSSTASITSGGHNDLVQIEQPQKDTSNNNNSNVNDEDNDLLTQDNNPQTADEGNASFQAQRSMISRGALPSHNKASFTDEEDEFILDVVRKNPTRRTTHTLYDEIAAAVPNHTGNSIRHRFRVYLSKRLEYVYEVDKFGKLVRDDDGNLIKTKVLPPSIKRKFSADEDYTLAIAVKKQFYRDLFQIDPDTGRSLITDEDTPTAIARRNMTMDPNHVPGSEPNFAAYRTQSRRGPIAREFFKHFAEEHAAHTENAWRDRFRKFLLAYGIDDYISYYEAEKAQNREPEPMKNLTNRPKRPGVPTPGNYNSAAKRAR
response ([3]; parent: est. 0.68): 0.47

B5: TeloA telomeric sequence (dsDNA)
DNA 1: GCCGCACACCCACACACCAGTG
DNA 2: CACTGGTGTGTGGGTGTGCGGC
binding result [6]: binds
binding result [7]: binds

B7: GST-SANT, P11938 H398A; T399A; G400A (protein)
chain: KASFTDEEDEFILDVVRKNPTRRTTHTLYDEISHYVPNAAANSIRHRFRVY
ratio to parent [3]: 0.62

B8: GST-SANT, P11938 N401A; S402A; I403A (protein)
chain: B7 chain with A39H, A40T, A41G, N42A, S43A, I44A
ratio to parent [3]: 0.97

Other lines, results leading:

response ([3]; parent: est. 1.3): 0.71
B2: GST-Rap1^643Δ S392A; H393A; Y394A (protein)
chain: MSSPDDFETAPAEYVDALDPSMVVVDSGSAAVTAPSDSAAEVKANQNEENTGATAAETSEKVDQTEVEKKDDDDTTEVGVTTTTPSIADTAATANIASTSGASVTEPTTDDTAADEKKEQVSGPPLSNMKFYLNRDADAHDSLNDIDQLARLIRANGGEVLDSKPRESKENVFIVSPYNHTNLPTVTPTYIKACCQSNSLLNMENYLVPYDNFREVVDSRLQEESHSNGVDNSNSNSDNKDSIRPKTEIISTNTNGATEDSTSEKVMVDAEQQARLQEQAQLLRQHVSSTASITSGGHNDLVQIEQPQKDTSNNNNSNVNDEDNDLLTQDNNPQTADEGNASFQAQRSMISRGALPSHNKASFTDEEDEFILDVVRKNPTRRTTHTLYDEIAAAVPNHTGNSIRHRFRVYLSKRLEYVYEVDKFGKLVRDDDGNLIKTKVLPPSIKRKFSADEDYTLAIAVKKQFYRDLFQIDPDTGRSLITDEDTPTAIARRNMTMDPNHVPGSEPNFAAYRTQSRRGPIAREFFKHFAEEHAAHTENAWRDRFRKFLLAYGIDDYISYYEAEKAQNREPEPMKNLTNRPKRPGVPTPGNYNSAAKRARNYSSQRNVQPTANAASANAAAAAAAAASNSYAIPENELLDEDT

ratio to parent [3]: 0.82
B6: GST-SANT, P11938 D389A; E390A; I391A (protein)
chain: B7 chain with D30A, E31A, I32A, A39H, A40T, A41G

ratio to parent [3]: 0.21
B9: GST-SANT, P11938 S392A; H393A; Y394A (protein)
chain: B7 chain with S33A, H34A, Y35A, A39H, A40T, A41G
